From the nanobody polyreactivity screen of Harvey et al. (2022) come the findings set out here.

The data set in a line: yeast display, Sf9 membrane polyspecificity reagent, FACS + sequencing; frameworks hold sequencing errors. Put shortly:
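Nanobodies from a synthetic yeast display library (Saccharomyces cerevisiae BJ5465), induced 36–48 hours with galactose, were stained 1 hour at 4 °C with 10% biotinylated, detergent-solubilized Sf9 membrane reagent, enriched on streptavidin microbeads, then FACS-sorted. Anti-HA (expression) and streptavidin (reagent binding) fluorescence set low and high (top ~1%) gates. Polyreactivity labels come from the gate of origin. Genes were colony-PCR amplified, MiSeq 2 × 250 sequenced and filtered by CDR length.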
“QVQLVESGGCLVQAGGSLRLSCAASGRIFYSYAMGWYRQAPGKERELVATISSGGSTNYADSVKGRFTISRDHAKNTVYLQMNSLKPEDTAVYFCAAADRLYWRGVIYRQYDYWGLGTQVTVSS”: the “polyreactivity (PSR sort gate)” value is “high polyreactivity”. As for “QVQLVESGGCLVQAGGSLRLSCAASGRIIYSNGMGWYRQAPGKERELVAAISSGGSTYYADSVKGRFTISRDNAKNTVYLQMNSLKPEDTAVYYCNKDYLLRHYYIYVIEGDYWGQGTQVTVSS”, the “polyreactivity (PSR sort gate)” value is given as “low polyreactivity”. As for “QVQLVESGGCLVQAGGSLRLSCAASGRRVQTYAMGWYRQAPRKERELVAAISIRGGSTYYADSVKGRFTISRDNAKNTVYLQKNSLTPEDTAVYYCNALYGRQIVDYEYWGQGTQVTVSS”, the entry is “low polyreactivity”; as for “QVQLVESGGCLVQAGGSLRLSCAASGRTFGFYAMGWYRQAPGKERELVAGITQSGGSTYYADSVKGRFTISRDNAKNTVYLQMNSLKTEDTAVYYCATDYQQLDDYWGQGTQVTVSS”, “low polyreactivity”. For “QVQLVESGGCLVQAGGSLRLSCAASGRTFSYYAMGWYRQAPGKERELVAAIDWSGSRTYYADSVKGRFTISRDNAKNTVYLQMNSLKPEDTAVYYCIADRTRGYQRYDYWGQGTQVTVSS”, the “polyreactivity (PSR sort gate)” value is “high polyreactivity”. As for “QVQLVESGGCLVQAGGSLRLSCAASGRTFYLYAMGWNRQAPGKEREFVARITFSGVSTYYADSVKGSFTISRDNAKNTVSLQMYRLKPEDTAVYYCNRVGHYGYSEGYYYWGQGTQVTVSS”, the entry is “high polyreactivity”. With “QVQLVESGGCLVQAGGSLRLSCAASGRTSDGYAMGWYRQAPGKERELVAGITEGGGDTYYADSVKGRFTISRDNAKITDYLQMNSLKPEDTAVYYCNAGEGSRLPYDYWGQGTQVTVSS”, the “polyreactivity (PSR sort gate)” value was “low polyreactivity”.

For “QVQLVESGGCLVQAGGSLRLSCAASGSIFDAYDKGWYRQAPGKERELVAAISRSGASTYYADSVKGRFTISRDNAKNTVYLQMNSLKPEDTAVYSCAARDRQRVSYGYWGQGTQVTVTS”, the “polyreactivity (PSR sort gate)” value is recorded as “high polyreactivity”. As for “QVQLVESGGCLVQAGGSLRLSCAASGSIFDSNAMGWYRQAPGKERELVAAITWSGGRTYYADSVKGRFTISLDNAKNTVYLQMNSLKPEDTAVYYCAARKYTLFWPYDYWGQGTQVTVSS”, the entry is “high polyreactivity”. For the sequence “QVQLVESGGCLVQAGGSLRLSCAASGSIFLFYAMGWYRHPPGKERELVAVIDTRASTTYYADSVKGRFTISRDNAKNTVYLQMNSLKPEDTAVYYCAAELQFTLYYSRPLLYQYYYWGQGTQVTVSS”, the “polyreactivity (PSR sort gate)” value is listed as “high polyreactivity”. Consider “QVQLVESGGCLVQAGGSLRLSCAASGSIFRYYAKGWYRQAPGKERELVAAIRVSTGSTSYADSVKGRFTISRDTAKNTVYLQMNSLKPEDTAFYYCNARSRQVIAYRQHNYWGQGTQVTVSS”, for which the “polyreactivity (PSR sort gate)” value is given as “high polyreactivity”. Next, “QVQLVESGGCLVQAGGSLRLSCAASGSIFSRYDMGWYRQAPGKEREFVPRITQRGGSTYYADSVKGRFTISRDNAKNTVYLQMNTVKPEDTAVYYCYADHYRRQLAEDYWGQGTQVTVSS”: “low polyreactivity”. As for “QVQLVESGGCLVQAGGSLRLSCAASGSIFVYYAMGWYRQSPGKERELVAAISWSGGSTRYADSVKGRFTISRDNAKNTVYLQMNSLKPEDTAVYYCAAKRLGGGYWGQGTQVTVSS”, the entry is “high polyreactivity”; as for “QVQLVESGGCLVQAGGSLRLSCAASGSIFYKYAMGWYRQAPGKERELVAAITSGGRTTYADSVKGRFTISRDNAKNTVYLQMNSLKPEDTAVYYCAAVVFSRRYWVKFYYWGQGTQVNVSS”, “high polyreactivity”; as for “QVQLVESGGCLVQAGGSLRLSCAASGSIITWNAMVWYRQAPGKERELVAAIDWDGGSTYYADSVKGRFTISRDNAKNTVYLQMHILKPEDTAVYYCAATYGWYTVRYPSGHYYYWGQGTQVTVSS”, “low polyreactivity”. As for “QVQLVESGGCLVQAGGSLRLSCAASGSTFKRYAMGWYRQAPGKVGELVAAISKSGGSTYYADSVKGRFTISRDNAKNTDYLQMNCLNAEDTAVYYCAAGRSIGALYYGMDYWGEGTQVTVSS”, the “polyreactivity (PSR sort gate)” value is listed as “high polyreactivity”. As for “QVQLVESGGCLVQAGGSLRLSCAASGSTFNFYAMGWYRQAPGKEREFVAAITSSGDSTYYADSVKGRFTISRDNAKNTVYLQMNSLKPEDTAVYYCAALTPRNRYRKFDYWGQGTQVTVSS”, the entry is “high polyreactivity”; as for “QVQLVESGGCLVQAGGSLRLSCAASGSTFTINVMGWYRQAPGKERELVAAINGGGRTNYADSVKGRFTISRDNAKNTVYLQMNSLKPEDTAVYYCAADGLSNVRQMDYWGQGTQVTVSS”, “low polyreactivity”. Take “QVQLVESGGCLVQAGGSLRLSCAASGSTFTTNAMGWYIQAPGKERELVAAISWSGTTTYYADSVKGRFTISRDNAKNTGYLQMNSLKPEDTAVYYCAAQVVSGTVAYLDFGYWGQGTQVTVSS”: the “polyreactivity (PSR sort gate)” value is listed as “low polyreactivity”.

For “QVQLVESGGCLVQAGGSLRLSCAASGSTFWPYAMGWYRQAPGKERELVAAITSSGGSTYYADSVKGRFTISRDNAKNTVYLQMNSLKPEDTEVYYCAADWSNLGAYDYWGQGTQVTVSS”, the “polyreactivity (PSR sort gate)” value is reported as “low polyreactivity”. Turning to “QVQLVESGGCLVQAGGSLRLSCAASGSTLGYYAMGWYRQAPGKERELVASIRWDTASTYYADSVKGRFTISRDNAKNTVYLQMNSLKPEDTAVYYCNAGRPRFYRSRWYYYGYGYWGQGTQVTVSS”, the “polyreactivity (PSR sort gate)” value was “high polyreactivity”. As to “QVQLVESGGCLVQAGGSLRLSCAASGSTLSYYAMGWYRQAPGKERELVAAINKSVTRTYYADSVKGRFTISRDNAKNTVYLQMNSLKPEDTAVYYCAASVPYYNGYYYNAYEYWGQGTQVTVSS”, the “polyreactivity (PSR sort gate)” value was “high polyreactivity”.

For “QVQLVESGGCLVQAGGSLRLSCASSGSTFSPNDMGWYRQAPGKESELVADISNYADSVKGRFTISRDNAKNTVYLQMNSLKPEDTAVYYCAAEWRGDRYRLYVVSWWYDYWGQGTQVTVSS”, the “polyreactivity (PSR sort gate)” value is on record as “low polyreactivity”. Next, “QVQLVESGGCLVQAGGSLRLSCSASGSTITYYAMGWYRQAPGKERELVAAISGRGGRTDYADSVKGRFTISRDNAKNTVYLQMNSLKPEATAVYYCARAGRVQPGSEDDYWGQGTQVTVSS”: “high polyreactivity”. In the case of “QVQLVESGGCLVQAGGSLRLSCSSSGSTFEYNAIGWYRQAPGKERELVAAIRSSSSTHYADSVKGRFTISRDNAKNTVYLQMNSLKPEDTAVYYFNTDAHYYDHWGQGTQVTVSS”, the “polyreactivity (PSR sort gate)” value is recorded as “low polyreactivity”. As for “QVQLVESGGCLVQAGGSLRLSCSTSGSTFAVYVMGWSRQAPGKERELVAAISTSGARTYYADSVKGRFTISRDNAKNTDYLQMNSLKPEDTAVYYCAARGIYKSKYDYWGQGTQVSVSS”, the entry is “high polyreactivity”.

As to “QVQLVESGGCLVQAGGSLRLSSPASGITFPDYDMGWYRQAPGKERELVAAITYRSGSTYYADSVKGRFTISRDNAKNTVYFQMNSLKPEDTAVYYCAAKRFLLRYYTKQYNYWGQGTQVTVSS”, the “polyreactivity (PSR sort gate)” value is “high polyreactivity”. Next, “QVQLVESGGCLVQAGGSLRLTCAASGFIFPYYAMGWYRQAPGKERELVAGITGADSTYYADSVKGRFTISRDNAKNTVYLQMNSLKPEDTAVYYCARKRYSLSRTYNYGYWGQGTQVTVSS”: “high polyreactivity”; “QVQLVESGGCLVQAGGSLRLTCAASGRTFYRYAMGWSRQAPRKERELVAAITTSGGSTYYADSVKGRFTISRDNAMTTVFLQKNSLNPDDTEVYYCAATYYGYHIRDDYWGQGTQVTVSS”: “low polyreactivity”; “QVQLVESGGCLVQAGGSLSLSCAASGFTFSWNAMGWYRQAPGKERELVATITRSGSTYYADSVKGRFTISRDNAKNTVYLLMNSLKPEDTAVYYCAVVSWYRYSRYENDYWGQGTQVTVSS”: “high polyreactivity”. Next, “QVQLVESGGCLVQAGRSLRLSCAASGSTFYYNAMAWYRQAPGKERELVAAITFTGGSTYADSVKGRFTISRDNAKNTVYFQMNSQKPEDTAVYYCAATIQGHDYLGTGYDYWGQGTQVTVSS”: “low polyreactivity”.

With “QVQLVESGGCLVQARGSLRLSCAASGFIFRSYAMGWYRPAPGKERELVAAISRSGGSTYYADSVKGRFTISRDNAKNTVYLQMNSLKPEDTAVYYCAAEYRIPYFFTYVYWGQGTKVTVSS”, the “polyreactivity (PSR sort gate)” value is recorded as “high polyreactivity”. As for “QVQLVESGGCLVQARGTLRLSCASSGRTIYLYAMPWYRQAPAKERELVAAITKSGGSTYYADSVKGRFTISRDIAMNTVYVQMNSLKPQDTAFYYCYKDLSSTNLDYWGQGTQFTVSS”, the entry is “low polyreactivity”; as for “QVQLVESGGCLVQEGGSLRLSCPASGSIFDDYAMGWYRQAPGKERELVAAISDSCGSTYYADSVKGRFTISRDNAKNTVYLQMNSLNQEDTAVYYCNADRDDDYDYWGEGTQVTVSS”, “low polyreactivity”; as for “QVQLVESGGCLVQSGGRLRLSCAASGRIFYPYVMGWYRQAPGKEREFVAAITRSGGSTNADSVKGLFTISRDNAKNTVYLLLNSLKPEDTAVYYCARRVNRRYPFYQRDYWGQGTQVTVSS”, “high polyreactivity”. As for “QVQLVESGGCLVQSGGSLRLSCAATGSTFGRNAMGWSRQAPGKESELVAAISRGGGITYYADSVKGRFTISRDNAKNTVYFQMNSLKPEDTAVYYCNAYLSKYFRYDYWGQGTQVTVSS”, the entry is “high polyreactivity”.

As to “QVQLVESGGCSVQAGGSLRLSCAAAGRIFSYYAMGWYRQAPGKERELVAAITSGGRTYYADSVKGRFTISRDNAKTTVYLQMNSLKPEDTAVYYCAVGVRNQYYYWGQGTQVTVSS”, the “polyreactivity (PSR sort gate)” value was “high polyreactivity”. As for “QVQLVESGGDLVQAGGSLRLSCAASGITFRRYTMGWYRQAPGKERELVAAISSGGSTNYADSVKGRFTISRDNAKNTVYLQMNSLKPEDTAVYYCAATRRYIQYGYDYWGQGTQVTVSS”, the entry is “high polyreactivity”.

With “QVQLVESGGFLVQAGGSHRLSCAASGFTFQSNSMVWYRQAPGKERELVATITYSGGRTYYADSVKGRFTISRDNAKNTVYLQMNSLKPEDTAVYSCAARLAPLYRTYYYWGQGTQVTVSS”, the “polyreactivity (PSR sort gate)” value is reported as “low polyreactivity”. Next, “QVQLVESGGGEVQAGGSLRLSCAASGNIFVKYNMGWYRQAPGKERKLVAAIRWSGGTTNYADSVKGRFTISRDNAKSTVYLQMNSLKPEDTAVYYCNTGYWFFGYNEYDYWGQGTQVTVSS”: “low polyreactivity”; “QVQLVESGGGFDQARCSLRLSCPACASILREYAMGWYRQAPGKERELVATISRDGSTNYADSVKGRFTISRDNAKNTVYLQMNSLKPEDTAVYYCNTDLTYPYPNVEVLVYGFKLDYWGQGTQVTVSS”: “low polyreactivity”.
